According to PMC4551934, “RNA aptamer inhibitors of a restriction endonuclease”:
Substitutions are numbered along the chain they refer to.

T1: BamHI(E111A) restriction endonuclease (UniProt P23940 1-213, E111A)
T1 sequence: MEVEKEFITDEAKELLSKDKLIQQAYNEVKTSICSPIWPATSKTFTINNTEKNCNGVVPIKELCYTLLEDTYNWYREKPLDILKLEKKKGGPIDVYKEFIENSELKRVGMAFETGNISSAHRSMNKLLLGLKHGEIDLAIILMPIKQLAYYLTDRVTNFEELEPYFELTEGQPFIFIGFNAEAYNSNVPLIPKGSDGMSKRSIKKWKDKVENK

B1: anti-KpnI aptamer 24 (structured_RNA)
RNA: GGGAUAUCCUUCAUGGUGUGAUUAAACGUAAUCUCAAUCGAUCAUGCAUGAAGCGUUCCAUAUUUUU
B2: anti-KpnI aptamer 29 (16/23/29) (structured_RNA)
RNA: GGGAUAUCCCUACAUGAUAAUCGGGUGAGUAAGGCCUAAACAUCAUGCAUGAAGCGUUCCAUAUUUUU
B3: anti-KpnI aptamer 20 (structured_RNA)
RNA: GGGAUAUCCUUCAUGAUUCGGAAAAGCGUAACCGCGGCCAAUCAUGCAUGAAGCGUUCCAUAUUUUU
B4: anti-KpnI aptamer 30 (structured_RNA)
RNA: B3 RNA with A40G

How the values were obtained:
[1] = target: T1, BamHI(E111A) restriction endonuclease; test: EMSA; 20 nM protein; Kd EMSA: 10 mM Bis-Tris-Propane-HCl pH 7, 10 mM MgCl2, 100 ug/ml BSA, 37 C, 30 min; screen EMSA in selection buffers, 37 C: 10 mM HEPES pH 7.5 with 400 mM NaCl/; details: protein: commercial; chain copies: 2; label: 32P; hairpin
[2] = target: KpnI restriction endonuclease (UniProt P25237 1-218); test: cleavage inhibition; 20 nM DNA probe N10; Kd EMSA: 10 mM Bis-Tris-Propane-HCl pH 7, 10 mM MgCl2, 100 ug/ml BSA, 37 C, 30 min; screen EMSA in selection buffers, 37 C: 10 mM HEPES pH 7.5 with 400 mM NaCl/; details: protein: commercial, chain copies: 2
Chain of KpnI restriction endonuclease (P25237 whole entry): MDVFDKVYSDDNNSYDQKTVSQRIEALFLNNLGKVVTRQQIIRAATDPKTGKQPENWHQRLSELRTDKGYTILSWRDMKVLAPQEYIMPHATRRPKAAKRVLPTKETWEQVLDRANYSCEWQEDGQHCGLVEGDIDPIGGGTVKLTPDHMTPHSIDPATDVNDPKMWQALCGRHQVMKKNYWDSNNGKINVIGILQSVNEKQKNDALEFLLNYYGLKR

| Binder | binding result [1] | IC50 ([2]; hairpin) [nM] | IC50 [2] [nM] | IC50 ([2]; label: 32P, hairpin) [nM] |
| --- | --- | --- | --- | --- |
| B1 | no binding | – | – | – |
| GGGCAUGAUUCGGAAAAGCGUAACCGCGGCCAAUCAUG (structured_RNA) [aptamer 20s (38 nt)] | – | 13 ± 1.5 | – | – |
| GGGCAUGAUUCGGAUAUGCGUAACCGCGGCCAAUCAUG (structured_RNA) [20_AAA] | – | – | 104000 | – |
| B2 | no binding | – | – | 153 ± 11 |
| B3 | no binding | – | – | 36.1 ± 3.9 |
| B4 | no binding | – | – | 23.1 ± 0.8 |
| GGGUCGGAAAAGCGUAACCGCGGCCA (structured_RNA) [20_26 nt] | – | – | 77000 | – |
